Test results from patent EP2168984B1 (Abbott GmbH & Co. KG, dated 2012).

Legend:
Assay in all cases: competition ELISA: soluble cytokine against J695 (100 ng/ml) binding to immobilized human IL-12
human IL-1α = molecular target: T1, human IL-1α (human, UniProt P01583 113-271)
T1 sequence (looked up): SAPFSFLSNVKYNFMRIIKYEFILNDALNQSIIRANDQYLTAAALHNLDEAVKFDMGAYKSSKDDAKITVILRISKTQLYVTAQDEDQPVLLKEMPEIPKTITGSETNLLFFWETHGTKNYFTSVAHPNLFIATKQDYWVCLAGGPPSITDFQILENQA

human IL-1β = human IL-1β (human, UniProt P01584 117-269)
human IL-2 = human IL-2 (human, UniProt P60568 21-153)
human IL-4 = molecular target: T2, human IL-4 (human, UniProt P05112 25-153)
T2 sequence (looked up): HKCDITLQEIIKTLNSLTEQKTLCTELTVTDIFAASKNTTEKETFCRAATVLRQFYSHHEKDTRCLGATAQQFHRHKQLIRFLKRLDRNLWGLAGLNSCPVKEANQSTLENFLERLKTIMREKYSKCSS

human IL-10 = human IL-10 (human, UniProt P22301 19-178)
human IL-17 = human IL-17 (human, UniProt Q16552 20-155, limits assumed)
human IFN-gamma = molecular target: T3, human IFN-gamma (human, UniProt P01579 24-166, limits assumed)
T3 sequence (looked up): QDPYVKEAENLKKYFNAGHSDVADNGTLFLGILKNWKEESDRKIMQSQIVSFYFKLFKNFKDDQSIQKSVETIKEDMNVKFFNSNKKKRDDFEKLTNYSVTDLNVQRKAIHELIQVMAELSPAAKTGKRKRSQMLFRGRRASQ

human TGF-β1 = human TGF-β1 (human, UniProt P01137 279-390)
human IL-8 = human IL-8 (human, UniProt P10145 28-99, limits assumed)
human IGF-I = human IGF-I (human, UniProt P05019 49-118)
human IGF-II = human IGF-II (human, UniProt P01344 25-91)
human TNFα = human TNFα (human, UniProt P01375 77-233)
human lymphotoxin = molecular target: T4, human lymphotoxin (human, UniProt P01374 35-205, limits assumed)
T4 sequence (looked up): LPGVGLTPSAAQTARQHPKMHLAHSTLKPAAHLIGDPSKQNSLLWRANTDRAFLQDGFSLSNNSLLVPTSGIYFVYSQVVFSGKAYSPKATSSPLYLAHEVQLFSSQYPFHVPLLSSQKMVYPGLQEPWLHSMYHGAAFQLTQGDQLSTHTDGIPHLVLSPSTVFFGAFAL

human IL-6 = human IL-6 (human, UniProt P05231 30-212)
[1] = molecular target: T5, human soluble IL-6 receptor (human, UniProt P08887 20-358)
T5 construct: Soluble form
T5 sequence (looked up): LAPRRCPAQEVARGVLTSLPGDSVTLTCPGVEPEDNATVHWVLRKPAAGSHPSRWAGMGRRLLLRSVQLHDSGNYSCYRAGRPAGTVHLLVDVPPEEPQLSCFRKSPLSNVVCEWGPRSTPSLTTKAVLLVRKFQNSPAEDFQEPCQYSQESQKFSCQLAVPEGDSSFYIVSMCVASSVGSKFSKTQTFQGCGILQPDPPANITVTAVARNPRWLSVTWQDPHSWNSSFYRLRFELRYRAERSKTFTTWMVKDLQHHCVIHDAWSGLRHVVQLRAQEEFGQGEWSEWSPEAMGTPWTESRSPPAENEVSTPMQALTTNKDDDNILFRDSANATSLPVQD

human IL-11 = molecular target: T6, human IL-11 (human, UniProt P20809 22-199)
T6 sequence (looked up): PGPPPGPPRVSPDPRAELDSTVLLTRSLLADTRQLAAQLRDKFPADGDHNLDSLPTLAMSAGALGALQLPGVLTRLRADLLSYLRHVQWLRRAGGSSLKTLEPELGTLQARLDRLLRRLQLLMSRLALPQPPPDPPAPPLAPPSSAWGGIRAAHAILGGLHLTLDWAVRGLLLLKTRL

human M-CSF = molecular target: T7, human M-CSF (human, UniProt P09603 33-190, limits assumed)
T7 sequence (looked up): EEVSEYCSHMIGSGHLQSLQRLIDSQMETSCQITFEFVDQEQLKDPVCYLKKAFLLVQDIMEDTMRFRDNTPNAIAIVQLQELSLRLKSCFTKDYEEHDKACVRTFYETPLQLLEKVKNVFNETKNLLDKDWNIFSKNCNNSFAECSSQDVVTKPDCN

human LIF = human LIF (human, UniProt P15018 23-202)

Measured: binding result

B1: J695 (human anti-human IL-12 antibody, IgG1) (antibody, V domains shown)
VH: QVQLVESGGGVVQPGRSLRLSCAASGFTFSSYGMHWVRQAPGKGLEWVAFIRYDGSNKYYADSVKGRFTISRDNSKNTLYLQMNSLRAEDTAVYYCKTHGSHDNWGQGTMVTVSS
VL: QSVLTQPPSVSGAPGQRVTISCSGSRSNIGSNTVKWYQQLPGTAPKLLIYYNDQRPSGVPDRFSGSKSGTSASLAITGLQAEDEADYYCQSYDRYTHPALLFGTGTKVTVLG
notes: Tested as whole IgG1 with lambda light chain (detected with anti-human lambda); also called IgG1 J695; Y61-L94Y-L50Y IgG
no binding (tested: 2nM): human IL-1α | human IL-1β | human IL-2 | human IL-4 | human IL-10 | human IL-17 | human IFN-gamma | human TGF-β1 | human IL-8 | human IGF-I | human IGF-II | human TNFα | human lymphotoxin | human IL-6 | [1] | human IL-11 | human M-CSF | human LIF
